The source of these data is publication PMC2139951.

Assay [1] has as its target Ran (recombinant, GTP form) (UniProt P62826).
For assay [2] the target is unchanged. Briefly: inhibition of GAP-induced GTP hydrolysis on Ran.

Take “recombinant Xenopus RanBP7 with COOH-terminal his-tag (natural protein)”: the offrate in assay [1] was found to be 2 h. In addition, the Kd in assay [2] was found to be 25 nM.
Turning to “recombinant importin-β (from UniProt Q14974 1-876) (natural protein; other documents disagree on this pair)”, the Kd in assay [2] came to 0.8 nM.

In general, Kd refers to the free concentration of one partner at which half of the binding sites on the other are occupied at equilibrium, for simple one-to-one binding.
